{
  "source": "patent US6921641",
  "proteins": {"B1": {"name": "Bacillus caldotenax (Bca) UvrB protein, wild type (protein)", "chain": "VEGRFQLVAPYEPQGDQPQAIAKLVDGLRRGVKHQTLLGATGTGKTFTISNVIAQVNKPTLVIAHNKTLAGQLYSELKEFFPHNAVEYFVSYYDYYQPEAYVPQTDTYIEKDAKINDEIDKLRHSATSALFERRDVIIVASVSCIYGLGSPEEYRELVVSLRVGMEIERNALLRRLVDIQYDRNDIDFRRGTFRVRGDVVEIFPASRDEHCIRVEFFGDEIERIREVDALTGEVLGEREHVAIFPASHFVTREEKMRLAIQNIEQELEERLAELRAQGKLLEAQRLEQRTRYDLEMMREMGFCSGIENYSRHLALRPPGSTPYTLLDYFPDDFLIIVDESHVTLPQLRGMYNGDRARKQVLVDHGFRLPSALDNRPLTFEEFEQKINQIIYVSATPGPYELEHSPGVVEQIIRPTGLLDPTIDVRPTKGQIDDLIGEIRERVERNERTLVTTLTKKMAEDLTDYLKEAGIKVAYLHSEIKTLERIEIIRDLRLGKYDVLVGINLLREGLDIPEVSLVAILDADKEGFLRSERSLIQTIGRAARNANGHVIMYADTITKSMEIAIQETKRRRAIQEEYNRKHGIVPRTVKKEIRDVIRATYAAEETEMYEAKPAAAMTKQEREELIRTLEAEMKEAAKALDFERAAQLRDIIFELKAEG"}, "B2": {"name": "β-hairpin deletion mutant of the B. caldotenax UvrB protein (Δβh UvrB) (protein)", "chain": "VEGRFQLVAPYEPQGDQPQAIAKLVDGLRRGVKHQTLLGATGTGKTFTISNVIAQVNKPTLVIAHNKTLAGQLYSELKEFFPHNAVEYFVSYYDYYGAKINDEIDKLRHSATSALFERRDVIIVASVSCIYGLGSPEEYRELVVSLRVGMEIERNALLRRLVDIQYDRNDIDFRRGTFRVRGDVVEIFPASRDEHCIRVEFFGDEIERIREVDALTGEVLGEREHVAIFPASHFVTREEKMRLAIQNIEQELEERLAELRAQGKLLEAQRLEQRTRYDLEMMREMGFCSGIENYSRHLALRPPGSTPYTLLDYFPDDFLIIVDESHVTLPQLRGMYNGDRARKQVLVDHGFRLPSALDNRPLTFEEFEQKINQIIYVSATPGPYELEHSPGVVEQIIRPTGLLDPTIDVRPTKGQIDDLIGEIRERVERNERTLVTTLTKKMAEDLTDYLKEAGIKVAYLHSEIKTLERIEIIRDLRLGKYDVLVGINLLREGLDIPEVSLVAILDADKEGFLRSERSLIQTIGRAARNANGHVIMYADTITKSMEIAIQETKRRRAIQEEYNRKHGIVPRTVKKEIRDVIRATYAAEETEMYEAKPAAAMTKQEREELIRTLEAEMKEAAKALDFERAAQLRDIIFELKAEG"}, "B3": {"name": "Bacillus caldotenax (Bca) UvrA protein (protein)", "chain": "MDKIVVKGARAHNLKNIDVEIPRGKLVVLTGLSGSGKSSLAFDTIYAEGQRRYVESLSAYARQFLGQMEKPDVDAIEGLSPAISIDQKTTSRNPRSTVGTVTEIYDYLRLLFARIGRPVCPTHGIEIQSQTIEQMVDRLLAYPERTKMQILAPIVSGKKGTHAKTLEDIRKQGYVRVRIDGEMRELTEDIELEKNKKHSIDVVVDRIIIKDGIAARLADSLETALKLADGKVVVDVIGEGELLFSEKHACPYCGFSIGELEPRLFSFNSPFGACPDCDGLGAKLEVDLDLVIPNDELTLKEHAIAPWEPQSSQYYPQLLEAVCRHYGIPMDVPVRDLPKEQLDKILYGSGGEPIYFRYTNDFGQVREQYIAFEGVIPNVERRYRETSSDYIREQMEKYMAEQPCPTCQGYRLKKESLAVLVGGKHIGEVTAMSVTEALAFFDGLELTEKEAQIARLILREIRDRLGFLQNVGLDYLTLSRSAGTLSGGEAQRIRLATQIGSRLTGVLYVLDEPSIGLHQRDNDRLIATLKSMRDLGNTLIVVEHDEDTMLAADYLIDIGPGAGIHGGEVISAGTPEEVMEDPNSLTGSYLSGKKFIPLPPERRKPDGRYIEIKGAREHNLKNVSVKIPLGTFVAVTGVSGSGKSTLVNEVLYKALAQKLHRAKAKPGEHRDIRGLEHLDKVIDIDQSPIGRTPRSNPATYTGVFDDIRDVFASTNEAKVRGYKKGRFSFNVKGGRCEACHGDGIIKIEMHFLPDVYVPCEVCHGKRYNRETLEVTYKGKNIAEVLDMTVEDALDFFASIPKIKRKLETLYDVGLGYMKLGQPATTLSGGEAQRVKLAAELHRRSNGRTLYILDEPTTGLHVDDIARLLDVLHRLVDNGDTVLVIEHNLDVIKTADYIIDLGPEGGDRGGQIVAVGTPEEVAEVEESHTGRYLNPILERDRARMQAQYEAVKA"}},
  "key": {"[1]": {"biological_target": "T1, Bacillus caldotenax (Bca) UvrA protein", "T1 chain": "B3 chain"}, "[2]": {"biological_target": "T2, Escherichia coli UvrB protein", "T2 chain": "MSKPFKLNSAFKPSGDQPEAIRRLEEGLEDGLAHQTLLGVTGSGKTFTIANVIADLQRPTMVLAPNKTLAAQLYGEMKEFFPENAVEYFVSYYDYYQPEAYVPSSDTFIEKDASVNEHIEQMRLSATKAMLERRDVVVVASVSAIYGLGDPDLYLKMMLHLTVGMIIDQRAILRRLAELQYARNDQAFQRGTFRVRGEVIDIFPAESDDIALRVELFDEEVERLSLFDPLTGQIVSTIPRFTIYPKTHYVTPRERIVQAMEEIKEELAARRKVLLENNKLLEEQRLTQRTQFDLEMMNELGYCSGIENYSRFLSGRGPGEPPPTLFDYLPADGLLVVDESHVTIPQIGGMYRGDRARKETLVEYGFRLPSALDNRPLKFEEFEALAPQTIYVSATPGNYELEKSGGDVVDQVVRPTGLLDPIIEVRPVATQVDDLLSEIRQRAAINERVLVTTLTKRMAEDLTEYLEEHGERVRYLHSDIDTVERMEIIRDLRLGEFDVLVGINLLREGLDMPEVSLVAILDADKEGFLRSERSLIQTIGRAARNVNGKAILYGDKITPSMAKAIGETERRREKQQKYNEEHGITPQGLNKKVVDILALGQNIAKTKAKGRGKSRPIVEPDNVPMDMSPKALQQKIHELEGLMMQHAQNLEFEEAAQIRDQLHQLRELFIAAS"}},
  "data": [
    {"protein": "B1", "values": [
      {"measurement": "ATPase activity (UvrA + UvrB + UV-DNA) (mol of ATP hydrolyzed/mol of protein/min)", "setting": "[1]", "value": 22},
      {"measurement": "ATPase activity (UvrA + UvrB) (mol of ATP hydrolyzed/mol of protein/min)", "setting": "[1]", "value": 18.3}
    ]},
    {"protein": "B2", "values": [
      {"measurement": "ATPase activity (UvrA + Δβh UvrB + UV-DNA) (mol of ATP hydrolyzed/mol of protein/min)", "setting": "[1]", "value": 29},
      {"measurement": "ATPase activity (UvrA + Δβh UvrB) (mol of ATP hydrolyzed/mol of protein/min)", "setting": "[1]", "value": 19}
    ]},
    {"protein": "B3", "values": [
      {"measurement": "DNA substrate bound in the form of UvrB-DNA complex (gel mobility shift, Eco UvrB at 100 nM)", "setting": "[2]", "value": "more than 50% of the DNA substrate bound in the form of UvrB-DNA complex"},
      {"measurement": "DNA substrate bound in the form of UvrB-DNA complex (gel mobility shift, Eco UvrB at 250 nM)", "setting": "[2]", "value": "all the BPDE-containing substrate is bound as the UvrB-DNA complex"}
    ]}
  ]
}
